According to patent US20210072252A1 (WASHINGTON UNIVERSITY, published 2021):

Legend:
[1] = target: T1, peptide with N-terminal histidine; experiment: biolayer interferometry kinetics; reference: truncated wild-type HisRS fragment
T1 construct: also called peptides with N-terminal histidine residues

[2] = target: T1, peptide with N-terminal histidine; experiment: biolayer interferometry (Blitz), peptide-coated sensor, NAAB in 1x PBS, 1:1 fit, kd/ka

B1: engineered HisNAAB (3-180) (designed binder)
chain: KNIQAIRGMNDYLPGETAIWQRIEGTLKNVLGSYGYSEIRLPIVEQTPLFKRAIGEVTDVVEKEMYTFEDRNGDSLTLRPEGTAGCVRAGIEHGLLYNQEQRLWYIGPMFGNAPQFHQLGCEVFGLQGPDIDAELIMLTARWWRALGISEHVTLELNSIGSLEARANYRDA
[1]
  fold improvement in binding affinity against the wild-type fragment: ~10 fold
[2]
  Kd: 98.7 µM
